# Data: US7880053B2, “Methods of using transformed plants expressing plant-derived acyl-coenzyme-A-binding proteins in phytoremediation” (priority 2007, dated 2011)
# “Also recorded” adds a separate entry of the source.
# B1: (His)6-ACBP4: recombinant (His)6-ACBP4 from pRSET B-derived vector pAT184 in E. coli (protein, UniProt Q9MA55 1-668, looked up)
# Acyl-CoA-binding …: MAMPRATSGPAYPERFYAAASYVGLDGSDSSAKNVISKFPDDTALLLYALYQQATVGPCNTPKPSAWRPVEQSKWKSWQGLGTMPSIEAMRLFVKILEEDDPGWYSRASNDIPDPVVDVQINRAKDEPVVENGSTFSETKTISTENGRLAETQDKDVVSEDSNTVSVYNQWTAPQTSGQRPKARYEHGAAVIQDKMYIYGGNHNGRYLGDLHVLDLKSWTWSRVETKVATESQETSTPTLLAPCAGHSLIAWDNKLLSIGGHTKDPSESMQVKVFDPHTITWSMLKTYGKPPVSRGGQSVTMVGKTLVIFGGQDAKRSLLNDLHILDLDTMTWDEIDAVGVSPSPRSDHAAAVHAERFLLIFGGGSHATCFDDLHVLDLQTMEWSRPAQQGDAPTPRAGHAGVTIGENWFIVGGGDNKSGASESVVLNMSTLAWSVVASVQGRVPLASEGLSLVVSSYNGEDVLVAFGGYNGRYNNEINLLKPSHKSTLQTKTLEAPLPGSLSAVNNATTRDIESEVEVSQEGRVREIVMDNVNPGSKVEGNSERIIATIKSEKEELEASLNKERMQTLQLRQELGEAELRNTDLYKELQSVRGQLAAEQSRCFKLEVDVAELRQKLQTLETLQKELELLQRQKAASEQAAMNAKRQGSGGVWGWLAGSPQEKDDDSP
# modifications: His6 tag
# notes: recombinant (His)6-ACBP4 from pRSET B-derived vector pAT184 in E. coli
# B2: (His)6-ACBP6: recombinant (His)6-ACBP6, 18.9 kDa inclusive of His-tag, from vector pAT335 in E. coli (protein, UniProt P57752 1-92, looked up)
# Acyl-CoA-binding …: MGLKEEFEEHAEKVNTLTELPSNEDLLILYGLYKQAKFGPVDTSRPGMFSMKERAKWDAWKAVEGKSSEEAMNDYITKVKQLLEVAASKAST
# modifications: His6 tag
# notes: recombinant (His)6-ACBP6, 18.9 kDa inclusive of His-tag, from vector pAT335 in E. coli
# B3: ACBP6: in vitro translated [35S]methionine-labeled Arabidopsis ACBP6 (SEQ ID NO: 26), 10-kDa ACBP (protein)
# chain: B2 Acyl-CoA-binding …
# modifications: Arabidopsis
# B4: ACBP2 (protein)
# chain: MGDWAQLAQSVILGLIFSYLLAKLISIVVTFKEDNLSLTRHPEESQLEIKPEGVDSRRLDSSCGGFGGEADSLVAEQGSSRSDSVAGDDSEEDDDWEGVESTELDEAFSAATLFVTTAAADRLSQKVPSDVQQQLYGLYKIATEGPCTAPQPSALKMTARAKWQAWQKLGAMPPEEAMEKYIEIVTQLYPTWLDGGVKAGSRGGDDAASNSRGTMGPVFSSLVYDEESENELKIDAIHGFAREGEVENLLKSIESGIPVNARDSEGRTPLHWAIDRGHLNIAKVLVDKNADVNAKDNEGQTPLHYAVVCDREAIAEFLVKQNANTAAKDEDGNSPLDLCESDWPWIRDSAKQAD
# modifications: Arabidopsis
# B5: ACBP1: in vitro translated [35S]methionine-labeled Arabidopsis ACBP1 (SEQ ID NO: 27), wheat germ extract system (protein)
# chain: MADWYQLAQSIIFGLIFAYLLAKLISILLAFKDENLSLTRNHTTQSEYENLRKVETLIGISGETDSLIAEQGSLRGDEDESDDDDWEGVESTELDEAFSAATAFVAAAASDRLSQKVSNELQLQLYGLYKIATEGPCTAPQPSALKMTARAKWQAWQKLGAMPPEEAMEKYIDLVTQLYPAWVEGGSKRRNRSGEAAGPMGPVFSSLVYEEESDNELKIDAIHAFAREGEVENLLKCIENGIPVNARDSEGRTPLHWAIDRGHLNVAEALVDKNADVNAKDNEGQTSLHYAVVCEREALAEFLVKQKADTTIKDEDGNSPLDLCESEWSWMREKKDSN
# modifications: Arabidopsis
# What was measured:
# [1] = Heavy-metal-binding assay using metal-chelate affinity chromatography, Cd(II)-equilibrated matrix; conditions: FIG. 2C
# Text: (§1) The coding regions of ACBP1, ACBP2 and ACBP6 were generated by RT-PCR for construction of pGEM-T EASY (Promega) derivatives for in vitro transcription/translation. Primers used in RT-PCR were as follows: ACBP1 (ML190 (SEQ ID NO:20) and ML917 (SEQ ID NO:17), ACBP2 (ML902 (SEQ ID NO:21) and ML903 (SEQ ID NO:22)), and ACBP6 (ML812 (SEQ ID NO:23) and ML751 (SEQ ID NO:2)). The PCR products were subsequently cloned into pGEM-T EASY vector (Promega) for in vitro transcription/translation using the TNT® T7/SP6 Coupled Wheat Germ Extract System (Promega) following the manufacturer's instruction. Pb(II)-, Cd(II)-, and Cu(II)-equilibrated matrices for metal-binding assays were prepared by stripping Ni-NTA agarose (Qiagen) of nickel and re-equilibrating with 0.1 M Pb(NO3)2 (Aldrich), CdCl2 (Aldrich), or CuCl2 (Aldrich). Twenty μl of Pb(II)-, Cd(II)-, or Cu(II)-equilibrated matrix, 545 μl of 50 mM KH2PO4, 300 mM NaCl, pH 7.4, and [^35S]methionine-labeled protein were added to a microfuge tube (Dykema et al., Plant Mol. Biol. 41: 139-150, 1999) and rotated on a wheel at 4° C. for 1 h. Subsequently, the matrix was washed 3 times with 1.0 ml of 50 mM KH2PO4, 300 mM NaCl, pH 7.5. […]
# [2] = Heavy-metal-binding assay using metal-chelate affinity chromatography, Pb(II)-equilibrated matrix; conditions: for binding of in vitro translated ACBP to Pb(II): [35S]methionine-labeled protein, SDS-PAGE autoradiography, FIG. 2B
# Text: The coding regions of ACBP1, ACBP2 and ACBP6 were generated by RT-PCR for construction of pGEM-T EASY (Promega) derivatives for in vitro transcription/translation. Primers used in RT-PCR were as follows: ACBP1 (ML190 (SEQ ID NO:20) and ML917 (SEQ ID NO:17), ACBP2 (ML902 (SEQ ID NO:21) and ML903 (SEQ ID NO:22)), and ACBP6 (ML812 (SEQ ID NO:23) and ML751 (SEQ ID NO:2)). The PCR products were subsequently cloned into pGEM-T EASY vector (Promega) for in vitro transcription/translation using the TNT® T7/SP6 Coupled Wheat Germ Extract System (Promega) following the manufacturer's instruction. Pb(II)-, Cd(II)-, and Cu(II)-equilibrated matrices for metal-binding assays were prepared by stripping Ni-NTA agarose (Qiagen) of nickel and re-equilibrating with 0.1 M Pb(NO3)2 (Aldrich), CdCl2 (Aldrich), or CuCl2 (Aldrich). Twenty μl of Pb(II)-, Cd(II)-, or Cu(II)-equilibrated matrix, 545 μl of 50 mM KH2PO4, 300 mM NaCl, pH 7.4, and [^35S]methionine-labeled protein were added to a microfuge tube (Dykema et al., Plant Mol. Biol. 41: 139-150, 1999) and rotated on a wheel at 4° C. for 1 h. Subsequently, the matrix was washed 3 times with 1.0 ml of 50 mM KH2PO4, 300 mM NaCl, pH 7.5. The binding protein was eluted with 200 μl of 50 mM KH2PO4, 300 mM NaCl, 500 mM imidazole, pH 4.5, followed by extraction with 200 μl of 2% SDS, 50 mM DTT, heating at 85° C. for 3 min and analysis by SDS-PAGE followed by autoradiography.
# [3] = Heavy-metal-binding assay using metal-chelate affinity chromatography, Cu(II)-equilibrated matrix; conditions: FIG. 2C
# Text: as §1
# ACBP1 to ACBP5 mRNA = test: RT-PCR of ACBP transcripts in root after Pb(II) treatment; format: in vivo, Arabidopsis thaliana; conditions: 1 mM Pb(NO3)2, 24 h, 3-week-old Col-0 seedlings, FIG. 1
# Method: (§2) Arabidopsis thaliana wild-type Columbia (ecotype Col-0), ACBP1- and ACBP3-overexpressing transgenic plants (ecotype Col-0) were grown under 8 h dark at 21° C. and 16 h light at 23° C. cycles. For Pb(II)-inducible gene expression analysis, Arabidopsis seedlings were grown for 3 weeks in continuous light, treated with 1 mM Pb(NO3)2 or water (as control), and shoot and root samples were collected at 24 h post-treatment. For Pb(II) sensitivity tests, Arabidopsis seedlings were surface-sterilized and grown on Murashige and Skoog (Physiol. Plant. 15: 473-497, 1962) medium containing 2% sucrose with or without 0.75 mM Pb(NO3)2 (Sigma-Aldrich, St. Louis) for 2 to 3 weeks.
# (§3) To determine if the regulation of Arabidopsis ACBP mRNAs responds to Pb(II) stress, we performed reverse transcription-PCR(RT-PCR) using root tissue RNA following treatment with 1 mM Pb(NO3)2. For RT-PCR, total RNA was extracted with TRIzol (Invitrogen) reagent, according to the manufacturer's protocol, from roots of 3-week-old wild-type Arabidopsis (Col-0) seedlings in the presence or absence (water as control) of 1 mM Pb(NO3)2. RT-PCR analysis was performed as according to the manufacturer (Invitrogen Cat No. 12371-019). Specific primers were designed based on mRNA sequences. […]
# ACBP6 transcript = test: as above; format: in vivo, Arabidopsis thaliana; conditions: 1 mM Pb(NO3)2, 24 h, 3-week-old Col-0 seedlings, FIG. 1
# Method: as §2, §3
# [4] = Lead-binding assay, fluorescence of dansylated (His)6-ACBP; conditions: 1 to 9 μM Pb(II), FIG. 2A
# Method: Lead-binding assays and fluorescence measurements were carried out according to Funaba and Mathews (Mol. Endocrinol. 14:1583-1591, 2000) with minor modifications. Briefly, 3.2 μM of each purified (His)6-ACBP protein which was equilibrated in 20 mM phosphate buffer (pH 7.2) with 200 mM NaCl, were labeled with 8 μl of 200 mM dansyl aziridine (Molecular Probes, Cat. No. D151) and reacted for 2 h in a 1.5 ml Eppendorf tube at room temperature. The dansylated (His)6-ACBP proteins were then distributed to 8 wells of a 96-well microtiter plate (Nunc Cat. No. 236105). Various concentrations (0, 1.0, 2.0, 3.0, 4.0, 5.0, 7.0 and 9.0 μM) of Pb(NO3)2 (Aldrich, Cat. No. 203580) solutions were added and the reactions were incubated at room temperature for 1 h.
# Fluorescence measurements were performed using a BIO-TEK FL600 Fluorescence Plate Reader (BIO-TEK Instrument, INC, USA) with excitation wavelength set at 360/40 nm and emission wavelength set at 530/25 nm. Prior to binding with lead, the dansyl aziridine coupled (His)6-ACBP recombinant proteins are sensitive to the conformational changes. After binding to Pb(II) molecules, the dansylated (His)6-ACBP recombinant proteins would change their conformations and the dye will show an increase in fluorescence excitation. […] Each experiment was repeated three times to ascertain results.
# [5] = EDTA at 50 mM final concentration
# [6] = [35S]methionine-labeled protein
molecule,measurement,setting,value
"O=C(O)CN(CCN(CC(=O)O)CC(=O)O)CC(=O)O [EDTA, ethylenediaminetetraacetic acid, reference compound]",effect on binding of ACBP2 to Cd(II),[1]; [5],inhibited
same,effect on binding of ACBP2 to Pb(II),"[2]; EDTA at 50 mM final concentration, FIG. 2C",inhibited
same,effect on binding of ACBP2 to Cu(II),[3]; [5],inhibited
O=[N+]([O-])[O-].O=[N+]([O-])[O-].[Pb+2] [Pb(II)],mRNA expressions of ACBP1 to ACBP5 in roots,ACBP1 to ACBP5 mRNA,increase
same,transcript of ACBP6 in roots,ACBP6 transcript,little change
B1,"relative fluorescence intensity in the presence of Pb(II), indicative of binding to Pb(II)",[4],much higher than the other recombinant ACBPs
B2,"relative fluorescence intensity in the presence of Pb(II), indicative of binding to Pb(II)",[4],bind Pb(II) less well than ACBP1
B3,binding of in vitro translated ACBP to Pb(II),[2],bind Pb(II) less well than ACBP1
B4,binding of in vitro translated ACBP to Cd(II),[1]; [6],binds Cd(II) and Cu(II) better than ACBP6
same,binding of in vitro translated ACBP to Pb(II),[2],bind Pb(II) better than ACBP6
same,binding of in vitro translated ACBP to Cu(II),[3]; [6],binds Cd(II) and Cu(II) better than ACBP6
B5,binding of in vitro translated ACBP to Pb(II),[2],bind Pb(II) better than ACBP6; also recorded: slightly better binding than ACBP2
